In patent publication US20260116991A1 (HAINAN SIMCERE ZAIMING PHARMACEUTICAL, published 2026):
Where a chain is given by its changes, count along the chain named. Values belong to the binder of their own block, whether it stands above or below them.

Tests used:
[1] = biological target: T1, polypeptide GC3pep of human GPC3 (Ala524-Lys563) (human); assay: ELISA, coated peptide
T1 construct: Residues Ala524-Lys563 of human GPC3 (NCBI NM_004484.3); coated on the ELISA plate; also called membrane proximal polypeptide GC3pep
T1 peptide: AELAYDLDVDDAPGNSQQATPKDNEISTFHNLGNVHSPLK

[2] = biological target: T2, murine GPC3-His protein (Sino Biological, Cat. No. 50989-M08B) (murine, UniProt Q8CFZ4 25-558); assay: ELISA, coated antigen
T2 construct: Bought protein; also called murine GPC3 protein; mouse GPC3-his protein; not shown: His tag

[3] = biological target: T3, polypeptide GC3pep (human); assay: ELISA, GC3pep coated, antibody 100 nM;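 note: detection with an HRP-conjugated secondary antibody and TMB substrate, color reaction stopped with HCl before absorbance reading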
T3 construct: also called membrane proximal polypeptide GC3pep
T3 peptide: T1 peptide

[4] = biological target: T3, polypeptide GC3pep; assay: ELISA, GC3pep coated, antibody 0.001 nM
[5] = biological target: T3, polypeptide GC3pep; assay: ELISA, GC3pep coated, antibody 0.0001 nM
[6] = biological target: T3, polypeptide GC3pep; assay: ELISA, GC3pep coated, antibody 1 nM;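 note: bound antibody detected with an HRP-conjugated secondary antibody and TMB substrate, reaction stopped with HCl, after 2 h binding at 37 °C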
[7] = biological target: T3, polypeptide GC3pep; assay: ELISA, GC3pep coated, antibody 0.01 nM;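 note: bound antibody detected with an HRP-conjugated secondary antibody and TMB substrate, color reaction stopped with HCl before reading absorbance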
[8] = biological target: T3, polypeptide GC3pep; assay: ELISA, GC3pep coated, antibody 0.1 nM;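 note: antibody allowed to bind the coated plate 2 h at 37 °C, then detected via HRP-conjugated secondary antibody and TMB development for 10 min, stopped with HCl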
[9] = biological target: T4, murine GPC3-His protein (murine, UniProt Q8CFZ4 25-558, limits assumed); assay: SPR, antibody captured on Protein A chip, murine GPC3-His injected
T4 construct: bought protein; also called murine GPC3 protein

[10] = biological target: T3, polypeptide GC3pep; assay: ELISA, GC3pep coated, antibody 10 nM;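 note: antibody bound to the coated peptide for 2 h at 37 °C, detected through an HRP-conjugated secondary antibody with TMB colour development stopped by acid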

T2 sequence (Q8CFZ4 25-558 limits assumed): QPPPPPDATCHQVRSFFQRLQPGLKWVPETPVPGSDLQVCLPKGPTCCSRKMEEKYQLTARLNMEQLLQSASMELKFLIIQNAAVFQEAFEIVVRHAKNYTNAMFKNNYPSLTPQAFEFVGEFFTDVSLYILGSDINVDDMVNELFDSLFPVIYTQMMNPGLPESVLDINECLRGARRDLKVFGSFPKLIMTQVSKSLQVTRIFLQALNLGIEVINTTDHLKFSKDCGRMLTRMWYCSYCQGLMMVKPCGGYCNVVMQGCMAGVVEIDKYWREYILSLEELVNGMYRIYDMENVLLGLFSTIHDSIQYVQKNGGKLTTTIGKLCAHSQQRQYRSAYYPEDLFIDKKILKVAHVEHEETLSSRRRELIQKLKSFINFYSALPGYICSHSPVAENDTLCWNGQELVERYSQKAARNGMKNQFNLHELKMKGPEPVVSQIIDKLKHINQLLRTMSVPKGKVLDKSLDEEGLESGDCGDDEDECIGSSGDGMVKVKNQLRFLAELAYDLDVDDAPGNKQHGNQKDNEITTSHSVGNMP
T4 sequence (Q8CFZ4 25-558 limits assumed): as above

B1: F1.62.9 human-murine chimeric antibody (antibody, human IgG1, kappa, V domains shown)
VH: QVQLQQSDAELVKPGASVKISCKVSGYIFTDHTIHWMKQRPEQGLEWIGYIYPRDGSIKYNENFKGKATLTADKSSSATYMQLNSLTSEDSAVYFCARPIYYDYAYYFDYWGQGTTLTVSS
VL: DVVMTQSPLSLPVSLGDQASISCRSRQSLVHSNGNTYLHWYLQKPGQSPKVLIYKVSNRFSGVPDRFSGSGSGTDFTLKISRVEAEDLGVYFCSQSTHVPYTFGGGTKLEIKR
notes: Chimeric
- binding result [1]: no binding (tested: 100 nM)

B2: F4.26.1 human-murine chimeric antibody (antibody, human IgG1, kappa, V domains shown)
VH: QVQLKQSGPGLVQPSQSLSITCTVSGFSLTSYGVHWVRQSPGKGLEWLGVIWSSGNTDYNAVLISRLSIKKDDSKSQVFFKMNSPQVDDSAIYYCGRNGGWLLRGFMDFWGQGTSVTVSS
VL: B1 VL with S7T, R26S, V30L, K44R, P45S, K50N, V51L, S70G, V90I, Y101W
notes: Chimeric
- binding result [1]: no binding (tested: 100 nM)

B3: F1.153.1 human-murine chimeric antibody (antibody, human IgG1, kappa, V domains shown)
VH: QIQLVQSGPELKKPGETVKISCKASGYTFTTAGMQWVQKMPGKGFKWIGWINTHSGEPQYAEDFKGRFAFSLETSASTAYLQISNLKNEDTATYFCARSFYYHGSSFFYFDYWGQGTTLTVSS
VL: DIVMTQSQKFMSTTVGDRVSITCKASQNVGTAVAWYQQKPGQSPKLLIYSASNRYTGVPDRFTGSGSGADFTLTISNMQSEDLADYFCQQYSRYPLTFGAGTKLELKR
notes: Chimeric
- binding result [1]: no binding (tested: 100 nM)
- binding result [2]: no binding (tested: 100 nM)

B4: F1.118.4 human-murine chimeric antibody (antibody, human IgG1, kappa, V domains shown)
VH: QVQLQQSGAELAKPGASVKLSCKASGYSFTSYWIHWVKQRPGQGLEWIGYINPSSGYTKYNQKFKDKATLTADKSSSTAYMQLSSLTYEDSAVYYCARFGSSSFYFDYWGQGTTLTVSS
VL: DIVLTQSPASLAVSLGQRATISCRASQSVSSSSYSYMHWYQQKPGQPPKLLIKYASNLDSGVPARFSGSGSGTDFTLNIHPVEEEDTATYYCQHSWEIPAFGGGTKLEIKR
notes: Chimeric
- binding result [1]: no binding (tested: 100 nM)
- binding result [2]: no binding (tested: 100 nM)

B5: F1.136.7 human-murine chimeric antibody (antibody, human IgG1, kappa, V domains shown)
VH: EVQLQQSGPVMVKPGPSVKISCQTSGFTFTDYYIHWVKQSHGKSLEWIGLVFPYDGGTNYNQKFKDKATLTLDTSSSTAYMELNSLTSEDSAVYYCARAGGFSYALNYWGQGTSVTVSS
VL: DIQMTQSPSSLSASLGGKVTITCKASQDINNYIAWYQHKPGKGPRLLIHFTSTLQPGIPSRFSGSGSGRDYSFSISNLEPEDIATYYCLQYDNLLLTFGAGTKLELKR
notes: Chimeric
- binding result [1]: no binding (tested: 100 nM)

B8: F1.2.14 (antibody, human IgG1, kappa, V domains shown)
VH: RVQLQQSGAELVKPGASVRMSCKASGYTFTAYSIEWMKQNLGKSLEWIGNFRPYNDDTKYNENFKGRATLTVEKSSATVYLELSRLTSDDSAVYYCARSGPTDYFDYWGQGTTLIVSS
VL: DIQMTQSPASLSASVGETVTITCRASDNIYSYLAWYQQKQGQSPQLLVYNAKTLAEGVPSRFSGSGSVTQFSLKIISLQPEDFGTYYCQHHFGTPRTFGGGTKLEIKR
notes: human-murine chimeric antibody
- OD450 nm [3]: 0.05 OD450 nm
- OD450 nm [4]: 0.05 OD450 nm
- OD450 nm [5]: 0.05 OD450 nm
- OD450 nm [6]: 0.05 OD450 nm
- OD450 nm [7]: 0.05 OD450 nm
- OD450 nm [8]: 0.05 OD450 nm
- Kd [9]: 0.844 nM
- koff [9]: 0.000147 s⁻¹
- kon [9]: 174000 M⁻¹ s⁻¹
- OD450 nm [10]: 0.05 OD450 nm

B11: F1.21.8 (antibody, human IgG1, kappa, V domains shown)
VH: EVQLQQSGPELVKPGASVKISCKTSGFLFTGHYMHWVKSSHGNILDWIGYIYPYNAISFYNQKFKGKATLTVDKSSNTAYMELRSLTSEDSAVYYCARGDYGNYVTAYWGQGTLVTVSA
VL: DVLMTQTPLSLPVSLGDQASISCRSSQSIVHSSGNTYLEWYLQKPGQSPKLLIYKVSNRFSGVPDRFSGSGSGTDFTLKISRVEAEDLGVYYCFQGSHLPWTFGGGTKLDIKR
notes: as for B8
- OD450 nm [3]: 0.05 OD450 nm
- OD450 nm [4]: 0.05 OD450 nm
- OD450 nm [5]: 0.05 OD450 nm
- OD450 nm [6]: 0.05 OD450 nm
- OD450 nm [7]: 0.05 OD450 nm
- OD450 nm [8]: 0.05 OD450 nm
- Kd [9]: 0.0771 nM
- koff [9]: 4.84e-05 s⁻¹
- kon [9]: 628000 M⁻¹ s⁻¹
- OD450 nm [10]: 0.05 OD450 nm

B12: F1.111.11 (antibody, human IgG1, kappa, V domains shown)
VH: EVQLQQSGPELVKPGASVKISCKASGYTFTDYYMNWVKQSHGKSLEWIGDIYPNNGDTTYNQRFKGKATLTVDKSSSTAYMELRSLASEDSAVYYCACPYNNPFGYWGQGTLVTVSA
VL: B1 VL with S7T, R26S, V51L, Y101W
notes: as for B8
- OD450 nm [3]: 0.15 OD450 nm
- OD450 nm [4]: 0.06 OD450 nm
- OD450 nm [5]: 0.06 OD450 nm
- OD450 nm [6]: 0.06 OD450 nm
- OD450 nm [7]: 0.05 OD450 nm
- OD450 nm [8]: 0.06 OD450 nm
- Kd [9]: 3.47 nM
- koff [9]: 0.00045 s⁻¹
- kon [9]: 129000 M⁻¹ s⁻¹
- OD450 nm [10]: 0.06 OD450 nm

Results, then the binder that gave them:

- binding result [1]: no binding (tested: 100 nM)
- binding result [2]: no binding (tested: 100 nM)
B6: F1.41.17 human-murine chimeric antibody (antibody, human IgG1, kappa, V domains shown)
VH: EVQLVESGGDSVKPGGSLKLSCAASGFTFSSYGMSWVRQTPDKRLEWVATINSGGSYTYYQDSVKGRFTISRDNAKNTLYLQMSSLKSEDTAIYYCVRHHYGSSYDYFDYWGQGTTLTVSS
VL: DIVMTQAAPSVPVMPGESVSISCRSSKSLLHSNGNTHLYWFLQRPGQSPQLLIYRMSNLASGVPDRFSGSGSGTAFTLRISRVEAEDVGVYYCMQHLEYPLTFGAGTKLELKR
notes: Chimeric

- binding result [1]: no binding (tested: 100 nM)
B7: F4.18.4 human-murine chimeric antibody (antibody, human IgG1, kappa, V domains shown)
VH: QVQLHQSGAEMAKPGASVNLSCKTSGFTFTDYGISWVKQRTRQGLEWIGDIYPRHINIYYNEKFKDKATLTADRSSSTAYMELRSMTSEDSAVYFCARRGTTGRGALDYWGQGTSLTVSS
VL: DILLTQSPAILSVSPGERVSFSCRASQSIGTSIHWYQQRTNGSPRLLIKYAFESISGIPSRFGGSGSRTDFTLTINSVESEDIADYYCQQTYNWPYTFGGGTKLEIKR
notes: Chimeric

- binding result [1]: no binding (tested: 100 nM)
B9: F1.145.22 human-murine chimeric antibody (antibody, human IgG1, kappa, V domains shown)
VH: QVQLQQSGTDLARPGASVKLSCKASGYTFTSFGISWVKQRTGQGLEWIGEIYPRSGSPYYNEKFTGKATLTADKSSSTAYMELRSLTSEDSAVYFCAKDFGSSYVFDYWGQGTALTVSS
VL: B8 VL with D27E, A34T, Q42K, V68G, I76N, F92Y, R96P, G100T, E105D, I106L
notes: Chimeric

- binding result [1]: no binding (tested: 100 nM)
B10: F4.13.7 human-murine chimeric antibody (antibody, human IgG1, kappa, V domains shown)
VH: QVQLQQPGAELVKPGASVKLSCKASGYTFTNNWVHWVKQRPGQGLEWTGMIHPDSGSTIYNEKFQSKATLTVDKSSSTAYMQLSSLTSEDSAVYYCARGYYDSSSYYAMDYWGQGTSVTVSS
VL: NIQMTQTTSSLSASLGDRVTISCSASQGIFNYLNWYQQKPDGTVKLLIYYTSSLHSGVPSRFSGSGSGTDYSLTISNLEPEDIATYYCQQYSKLPWTFGGGTKLEIKR
notes: Chimeric

- binding result [1]: no binding (tested: 100 nM)
- binding result [2]: no binding (tested: 100 nM)
B13: F1.9.19 human-murine chimeric antibody (antibody, human IgG1, kappa, V domains shown)
VH: DVQLQESGPGLVKPSQSLSLTCSVTGYSITSGYYWNWIRQFPGNRLEWMAYISYDGINNYNPSLKNRISIARDTSTNQFFLKLNSVTSEDTATYYCATTTEVALFDHWGQGTTLTVSS
VL: B11 VL with M4L, S28N, S32G, S33N, Y41F, V90L, G96A, L99V, D110E
notes: Chimeric

- binding result [1]: no binding (tested: 100 nM)
B14: F1.115.8 human-murine chimeric antibody (antibody, human IgG1, kappa, V domains shown)
VH: EVQLQQSGPELVKPGASVKMSCKASGYTFTEYYMHWVKQSHGKSLEWIGYIYPNNGGNGYNQKFKGKATLTVDKSSSTAYMGLRSLTSEDSAVYYCVRGYYSNWYFDVWGTGTTVTVSS
VL: B11 VL with S33N, N35K, L99V, W101F, G105S, D110E
notes: Chimeric

- binding result [1]: no binding (tested: 100 nM)
- binding result [2]: no binding (tested: 100 nM)
B15: F4.21.16 human-murine chimeric antibody (antibody, human IgG1, kappa, V domains shown)
VH: DVQLQESGPGLVKPSQSLSLTCSVTGYSITSGYYWNWIRQFPGNKLEWMGYISYDVTVNYNPSLKNRISITRDTSKNQFFLKLNSVTTEDTATYYCATITSVASMDHWGQGTSVTVSS
VL: B11 VL with V2I, S28N, S32R, S33N, I53L, V90I, L99F, W101F, G105S, D110E
notes: Chimeric

- binding result [1]: no binding (tested: 100 nM)
B16: F1.3.9 human-murine chimeric antibody (antibody, human IgG1, kappa, V domains shown)
VH: QVQLQQPGTELVKPGASVKLSCKASGYTFTSYWIHWVKQRPGQGLEWIGNINPPNAGTNYNEKFKSKATLTVDKSSSTAYMQLSSLTSEDSAVYYCARGRWLLHDYWGQGTTLTVSS
VL: DIQMTQSPASLSISVGETVTITCRASENIYSNLAWYQQKQGKSPQLLVYGTKNLAEGVPSRFSGSGSGTQYSLKINSLQSEDFGNYYCQHFWGTPYTFGGGTKLEILR
notes: Chimeric
